Several values for one entry are separate records, joined by “and”; a condition that tells them apart may be missing. Equal entries are not always repeated.
B1: DI-4: VHH from FC5DIE3IR llama immune library; SEQ ID NO: 47 (protein)
VHH: QVQLVESGGGLVQPGGSLRLSCAASGFTFSNYWMYWVRQAPGKGLERVSSIYISGGNTYYADSVKGRFTISRDNAKNTLYLQMNSLKSEDTAVYYCVKGDTFGGMDYWGKGTQVTVSS
modifications: DI-4
B2: DI-28: VHH from FC5DIE3IR llama immune library; SEQ ID NO: 54 (protein)
VHH: QAQVQLVESGGGLVQAGGSLRLSCAASGRTFSSSGMGWFRQAPGKDRELVAGISWSGDSAYYANSVAGRFTISRDNINNTVYLQMNSLKPEDTAVYYCAARQGGRNYATSPREYDYWGQGTQVTVSS
modifications: DI-28
B3: DI-16: VHH from FC5DIE3IR llama immune library; SEQ ID NO: 49; clone DI-11 has identical sequence (protein)
VHH: QAQVQLVESGGGLVQAGGSLRLSCAASGRTVSSYTMGWFRQAPGKERRFVATVNSSGRGTHYADSVKGRFTISRDNAKNTVYLQMNSLKPEDTAVYYCAAAPYPDGSLGPGYDYWGQGTQVTVSS
modifications: DI-16
B4: DI-48: VHH from FC5DIE3IR llama immune library; SEQ ID NO: 59 (protein)
VHH: QAQVQLVESGGGLVQAGGSLRLSCAASGRTFSTYVMGWFRQTPGKEREFVAGFSWSGDYAIYVNSVKGRFTISRDNAKNTVYLQMNSLRPEDTAVYYCAARQRGGYSGRSYYTGRNDYEYWGQGTQVTVSS
modifications: DI-48

Assays:
[1] = tested on: CFA-induced thermal hyperalgesia; assay: Hargreaves Model of Hyperalgesia in rats; assay type: in vivo, rat
Experimental: Hargreaves Model of Hyperalgesia in rats. Rats aged 4-6 weeks (weight range, 180-220 g) were used for intraplantar (ipl) administrations of various antibodies and evaluation of their efficacy in the Hargreaves model of inflammatory pain. Chronic inflammatory pain is induced by injecting a low volume (50 μl) of complete Freund's adjuvant (CFA; heat-killed M. tuberculosis—Sigma, St. Louis, Mo.—suspended in oil:saline 2:1 emulsion) into the right hind paw. The paw withdrawal latency in response to the application of a radiant stimulus onto the plantar surface of both right and left paw was measured using the plantar Analgesia Meter equipment for paw stimulation (IITC Life Science, Woodland Hills, Calif.). The time taken by the animal to respond by licking or flicking its paw is interpreted as positive response (paw withdrawal latency). After 48 h of the CFA injection, the baseline for latency paw withdrawal was measured and the mAbs tested. […] A cut-off time (20 sec) is established at the end of which the heat source shuts off automatically to avoid tissue damage. Animals were kept (randomized) one per cage and staff performing pain experiments are blinded to the content of injectable compounds. Percentage of maximum possible effect (% MPE) was calculated using the formula % MPE=(Test Latency−Baseline Latency)×100/(Cut-off−Baseline Latency).

[2] = tested on: OD1-evoked Nav1.7-mediated spontaneous pain behaviours; assay type: in vivo, mouse; conditions: 100 μg, injected 60 minutes prior to OD1; 20 min after the injection
[3] = target: T1, FC5DIE3IR (Homo sapiens, UniProt Q15858); assay: Surface Plasmon Resonance for VHH antibodies, immobilized FC5DIE3IR; assay type: binding; conditions: for Rmax (RU) / Kd / ka / kd: immobilized FC5DIE3IR; for ka / kd: 25 C
T1 construct: The supernatant was collected and loaded on a 5 ml MabSelect™ SuRe™ column; made in house; host or cells: CHO-3E7 (transient, pTT5 vector), purified from supernatant
Experimental: (§1) Surface Plasmon Resonance for VHH antibodies. For SPR experiments, IMAC-purified VHHs DI-D, DI-4, DI-16, DI-28 and DI-48 were passed through a Superdex 75 (GE Healthcare) column for SEC purification in HBS-EP+buffer (10 mM HEPES, pH 7.4, containing 150 mM NaCl, 3 mM EDTA and 0.05% P20), connected to an AKTAPurifier (GE Healthcare) at a flow rate of 1 ml/min. Monomeric VHH fractions were collected and protein concentration determined by measuring A280 measurement. Using a Biacore T200 instrument (GE Healthcare), approximately 500-1000 RUs of FC5DIE3IR, FC5 and an irrelevant VHH (2A3-H4) were immobilized on a CM5 Series S sensor chip (GE Healthcare) at pH 4.0 using standard amine coupling according to the manufacturer's instructions (GE Healthcare). […] Surfaces were regenerated by washing with a 120 s pulse of 10 mM glycine pH 1.5. Data were analyzed with Biacore T200 Software v 3.0 and affinities determined using steady state binding or a 1:1 binding model.

[4] = tested on: FC5; assay: Surface Plasmon Resonance for VHH antibodies, immobilized FC5; assay type: binding; conditions: SPR; 25 C
FC5, sequence (as listed by the source): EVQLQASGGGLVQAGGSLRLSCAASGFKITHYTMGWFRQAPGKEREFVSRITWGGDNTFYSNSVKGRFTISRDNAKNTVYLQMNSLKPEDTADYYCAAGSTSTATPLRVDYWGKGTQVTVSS
Experimental: as §1

[5] = tested on: 2A3-H4; assay: Surface Plasmon Resonance for VHH antibodies, immobilized irrelevant VHH 2A3-H4; assay type: binding; conditions: SPR; 25 C
Experimental: as §1

Row | Molecule | Rmax (RU) [3] [RU] | Binding to immobilized FC5 (comment, in words) [4] | Binding to immobilized 2A3-H4 (comment, in words) [5] | Kd [3] [nM] | ka [3] [M⁻¹ s⁻¹] | kd [3] [s⁻¹] | other results
1 | CC(=O)Nc1cccc(Nc2ncnc(N3CCC(OCc4ccc(OC(F)(F)F)cc4)CC3)n2)c1C [TC-N1752, reference compound] | – | – | – | – | – | – | Percentage of effect after injection (on left paw withdrawal) ([1]; 100 μg intraplantar, 0 h): 0%; Latency paw withdrawal ([1]; 100 μg intraplantar, 1 h): 8.15 ± 1.6 s and 8.15 ± 2.60 s; Percentage of effect after injection (on left paw withdrawal) ([1]; 100 μg intraplantar, 1 h): 37.01%; Latency paw withdrawal ([1]; 100 μg intraplantar, 2 h): 11.17 ± 1.19 s; Percentage of effect after injection (on left paw withdrawal) ([1]; 100 μg intraplantar, 2 h): 44.77%; Latency paw withdrawal ([1]; 100 μg intraplantar, 4 h): 11.90 ± 0.99 s; Percentage of effect after injection (on left paw withdrawal) ([1]; 100 μg intraplantar, 4 h): 49.05%; Percentage of maximum possible effect (% MPE) ([1]; 100 μg intraplantar, 4 h (FIG. 27B)): 46.47%±7.14; Time spent in pain behaviors (saline plus OD1 = 100%) [2]: 51.62%±4.85
2 | TLESEEDFRKYFYYLEGSKDALLCGFSTDS (Peptide #2 = 30 amino acid sequence located on loop3 of the D1 domain of the Nav1.7 polypeptide) [P2] | – | – | – | – | – | – | Latency paw withdrawal time ([1]; peptide 375 μg co-injected with 3A8 75 μg, intraplantar (FIG. 18)): 6.76 ± 0.32 s; 3A8-induced reversal of hyperalgesia (% MPE) ([1]; peptide 375 μg co-injected with 3A8 75 μg, intraplantar, 4 h): 13.49%±2.62
3 | B1 | 469.2 | No binding | Very low non- | – | – | – | –
4 | B2 | 318.3 | No binding | No binding | 4.4 | 461000 | 0.00205 | –
5 | B3 | 317.9 | No binding | No binding | 4.3 | 619000 | 0.00266 | –
6 | B4 | – | No binding | Very low | – | – | – | Binding to immobilized FC5DIE3IR (comment, in words) ([3]; SPR): Low affinity,

Source: patent publication US11945858B2, “Antibodies and antibody fragments against HNAV1.7 channel and their use in pain and cancer indications” (NATIONAL RESEARCH COUNCIL OF CANADA, priority 2018, dated 2024)
